{"source": "paper PMC3485151", "about": "“A Δ38 Deletion Variant of Human Transketolase as a Model of Transketolase-Like Protein 1 Exhibits No Enzymatic Activity” (PLoS ONE, 2012)", "target": "the molecule itself", "experiment": "SEC; analytical gel filtration, Superdex 200 10/30, 200 µL of 4 mg/mL protein in 50 mM glycyl-glycine pH 7.6, 500 mM NaCl, 6°C; apparent masses estimated from protein standards; semiquantitative"}
{"protein": "human full-length transketolase (enzyme, UniProt P29401 1-623, looked up, human transketolase (TKT, EC 2.2.1.1), full length, residues 1-623, expressed from a synthetic codon-optimized tkt gene in pET28a; Expressed and purified by the same protocol as TKTΔ38; also called TKT; full-length TKT; source: E. coli BL21*, purified (Ni-NTA, desalting column)) MESYHKPDQQKLQALKDTANRLRISSIQATTAAGSGHPTSCCSAAEIMAVLFFHTMRYKSQDPRNPHNDRFVLSKGHAAPILYAVWAEAGFLAEAELLNLRKISSDLDGHPVPKQAFTDVATGSLGQGLGAACGMAYTGKYFDKASYRVYCLLGDGELSEGSVWEAMAFASIYKLDNLVAILDINRLGQSDPAPLQHQMDIYQKRCEAFGWHAIIVDGHSVEELCKAFGQAKHQPTAIIAKTFKGRGITGVEDKESWHGKPLPKNMAEQIIQEIYSQIQSKKKILATPPQEDAPSVDIANIRMPSLPSYKVGDKIATRKAYGQALAKLGHASDRIIALDGDTKNSTFSEIFKKEHPDRFIECYIAEQNMVSIAVGCATRNRTVPFCSTFAAFFTRAFDQIRMAAISESNINLCGSHCGVSIGEDGPSQMALEDLAMFRSVPTSTVFYPSDGVATEKAVELAANTKGICFIRTSRPENAIIYNNNEDFQVGQAKVVLKSKDDQVTVIGAGVTLHEALAAAELLKKEKINIRVLDPFTIKPLDRKLILDSARATKGRILTVEDHYYEGGIGEAVSSAVVGEPGITVTHLAVNRVPRSGKPAELLKMFGIDRDAIAQAVRGLITKA", "values": [{"measurement": "stoichiometry N", "result": 2}]}
